Target: medin D25N, recombinant (human)
Experiment: thioflavin T fluorescence (aggregation kinetics); 20 uM medin, 20 uM ThT, 30 C, no agitation, 96-well plate, triplicate; 20 mM sodium phosphate, 150 mM NaCl, pH 7.4; sigmoidal fit, slope 1/tau is the rate of polymerization; self-assembly into ThT-responsive aggregates

Q: Which rate of polymerization (ThT fit) does the source give for medin D25N, recombinant (peptide) here?
A: Its rate of polymerization (ThT fit) is 1.43 h⁻¹.

From publication PMC4367279, “Comparisons with Amyloid-β Reveal an Aspartate Residue That Stabilizes Fibrils of the Aortic Amyloid Peptide Medin*” (The Journal of Biological Chemistry, 2015)
